Patent publication US20120083423

Target: autoantibodies to BRAF purified from the sera of RA patients

B1: BRAF (protein)
chain: LQKSPGPQRERKSSSSSEDRNRMKTLGRRDSSDDWEIPDGQITVGQRIGSGSFGTVYKGKWHGDVAVKMLNVTAPTPQQLQAFKNEVGVLRKTRHVNILLFMGYSTKPQLAIVTQWCEGSSLYHHLHIIETKFEMIKLIDIARQTAQGMDYLHAKSIIHRDLKSNNIFLHEDLTVKIGDFGLATVKSRWSGSHQFEQLSGSILWMAPEVIRMQDKNPYSFQSDVYAFGIVLYELMTGQLPYSNINNRDQIIFMVGRGYLSPDLSKVRSNCPKAMKRLMAECLKKKRDERPLFPQILASIELLARSLPKIHRSASEPSLNRAGFQTEDFSLYACASPKTPIQAGGYGAFPVH
phosphorylation of MEK1 by BRAF: 80% of anti-BRAF autoantibodies activate phosphorylation of MEK1 by BRAF in vitro
